Tests used:
[1] = test system: MEF cells; experiment: Osteoblast differentiation in MEF cells, alizarin red staining; assay type: cell-based; settings: differentiation medium for 8 days
Method: Primary human mesenchymal stem cells (MSCs), C3H10T1/2, 293T and MEF cells were cultured in a DMEM to which thermally inactivated 10% FBS and penicillin (100 U/mL)/streptomycin (100 μg/mL) were added. All cell types were cultured in a humidified incubator containing CO2 5% under a temperature condition of 37° C. In order to induce osteoblast differentiation, the medium was exchanged with a DMEM in which 50 μg/mL of ascorbic acid, 10 mM of β-glycerophosphate and 10% FBS were contained for 8 days. The differentiation medium was changed once every two days.
Therefore, in order to characterize a potential role of sLZIP in the transcriptional activity of Runx2 by inhibiting the transcriptional activity of PPARγ2, the transcriptional activity of Runx2 was examined. For this purpose, 293T cells were temporarily transfected with Runx2 (0.5 μg), β-galactosidase (0.1 μg), 6 copies of Runx2 response elements (0.2 μg) and sLZIP at different contents (0.1 μg to 0.5 μg) (FIG. 7A). PPARγ2 (0.5 μg), β-galactosidase, Runx2, 6 copies of Runx2 response elements and sLZIP (0.5 μg) were expressed in the 293T cells (FIG. 7B). 293T cells were temporarily transfected with HDAC3 (0.5 μg), Runx2, β-galactosidase, 6 copies of Runx2 response elements and sLZIP at different contents (0.25 and 0.5 μg) (FIG. 7C). A promoter activity was measured by luciferase analysis. […]

[2] = test system: sLZIP TG mouse embryos; experiment: Cartilage development, alcian blue staining of sLZIP TG mouse embryos on E12.5; assay type: in vivo; settings: E12.5, compared with wild type
Excerpt: In order to generate human sLZIP transgenic (TG) mice, sLZIP genes were cloned into a pCMV-flag expression vector. The sLZIP TG mice were generated by Macrogen, Inc (Seoul, Korea). Transgenic founders were mated with wild type C57BL/6 mice to produce F1 heterozygotes. F1-F4 generations were genetically screened for transgenes at an age of 2 weeks old. The following two primers were used to amplify genomic DNA in order to identify wild type and TG mice: 5′-GGACGATGATGACAAGGACT-3′ (SEQ ID NO: 25) and 5′-GTCAGAGGAGTACATGCTGCT-3′(SEQ ID NO: 26).
When a bone is initially developed during an embryo, cartilage is formed and hardened to a bone according to a so-called ossification (or osteogenesis) process. In order to examine whether sLZIP-mediated osteogenesis is associated with cartilage development, an effect of sLZIP in chondrocyte differentiation was examined. For this purpose, ATDC5 cells were temporarily transfected with sLZIP at different contents (0.1 μg to 0.5 μg). Total RNA was extracted from the cells, and an mRNA expression level of a chondrocyte marker was measured using RT-PCR analysis (FIG. 8A) and real-time PCR (FIG. 8B). GAPDH was used as an internal control group. An experiment was repeated three times. […] Total RNA was extracted from the mature osteoclasts, and an mRNA expression level of an osteoclast marker was measured using real-time PCR (FIG. 8D). […]

B1: sLZIP: human small leucine-zipper protein, isoform of LZIP, 354 amino acids, no transmembrane domain, GenBank FJ263669, SEQ ID NO: 1 (protein, listed as Homo sapiens)
chain: MELELDAGDQDLLAFLLEESGDLGTAPDEAVRAPLDWALPLSEVPSDWEVDDLLCSLLSPPASLNILSSSNPCLVHHDHTYSLPRETVSMDLESESCRKEGTQMTPQHMEELAEQEIARLVLTDEEKSLLEKEGLILPETLPLTKTEEQILKRVRRKIRNKRSAQESRRKKKVYVGGLESRVLKYTAQNMELQNKVQLLEEQNLSLLDQLRKLQAMVIEISNKTSSSSMYSSDTRGSLPAEHGVLSRQLRALPSEDPYQLELPALQSEVPKDSTHQWLDGSDCVLQAPGNTSCLLHYMPQAPSAEPPLEWPFPDLFSEPLCRGPILPLQANLTRKGGWLPTGSPSVILQDRYSG
[1]
  osteoblast differentiation and bone nodule formation: promoted osteoblast differentiation and bone nodule formation
[2]
  cartilage development of leg and tail: no difference
